Assay results: paper PMC6362458 (Journal of the American Chemical Society, 2017)

Tests used:
[1] = Photolysis of P2-insulin suspension in pH 7.2 PBS; assay type: physicochemical
[2] = 2 h
[3] = Visual precipitation on pH shift and clarification on photolysis; assay type: physicochemical; conditions: 75µM, 10 minutes 365nm LED (1.84 mW/cm^2)
[4] = cited from earlier work
[5] = Isoelectric point determination by IEF gel electrophoresis; assay type: physicochemical; conditions: data not shown

Substance | Insulin released from unirradiated control suspension ([1]; pH 7.2 PBS suspension processed identically, no 365 nm irradiation, IEF gel) | P2-insulin in supernatant of irradiated suspension ([1]; pH 7.2 PBS, IEF gel of supernatant) | Solubility at pH 4 [2] [µM] | Appearance of pH 7.2 suspension after irradiation [3] | pI (isoelectric point) [4] | pI of insulin reacted with uncharged DMNPE derivative vs native insulin [5]
P2-Insulin: insulin with two pyrrolidines linked via the photocleavable DMNPE group; likely mixture of modified carboxyl sites | no insulin released | no detectable P2-insulin | 216 | substantially clarified the suspension | – | –
insulin | – | – | – | – | 5.4 | 5.4
